Experimental findings from patent US20110286916A1 (published 2011) are described below.

B1: N1wc112 (scFv, V domains shown)
VH: EVQLVESGGGLAQPGKSLRISCAASGFTFGDYAMTWVRQAPGKGLEWVSSISGSGSGTYYTDSVKGRFAISRDNSKNTLYPQMNSLAAEDTAIYFCAKDQTDVTIRDFDYWGRGTLVTVSS
VL: SYELTQPPSVSVAPGQTARISCGGDNLGRKSVHWYQQKPGQAPVLVIYEDSKRPSGIPERFSGSSSGTMATLTISGAQVEDEADYYCYSTDSSGNHRVFGGGTKVTVL
notes: phage scFv
B2: hN1S3-146 (scFv, V domains shown)
VH: EVQLVQSGPEVKKPGTSVKVSCKASGFTFTSSAVQWVRQARGQRLEWIGWIVVGSGNTNYAQKFQERVTITRDMSTSTAYMELSSLRSEDTAVYYCVADTVYWGKGTLVTVSS
VL: QAVLTQPSSVSEAPRQRVTISCSGSSSNIGKNAVNWYQQLPGKAPKLLIYYDDLMPSGVSDRFSGSKSGTSASLAISGLQSEDEADYFCAAWDDSLSGWVFGGGTKLTVL
notes: phage scFv
B3: N1wc48 (scFv, V domains shown)
VH: QVQLVQSGAEVKKPGATVKISCKVSGYTFTDYYIHWVQQAPGKGLEWMGLVDPEDGETIYAEKFQGRVTIIADTSTDTAYMELSSLRSEDTAVYYCATGPFRLDSWGQGTMVTVSS
VL: QSVLTQPPSVSGAPGQRVTISCTGSSSNIGAGYDVHWYQQLPGSAPKLLIYGNNNRPSGVPDRFSGSKSGTSASLAITGLQAEDEADYYCQSFDNRLSDFNVFGTGTKVTVL
notes: phage scFv
B4: N1wc158 (scFv, V domains shown)
VH: EVQLVQSGAEVKKPGASVKVSCKASGYNFTGYYMHWVRQAPGQGLEWMGWINPNSGGTNYAQKFQGRVTMTRDTSISTAYMELSRLRSDDTAVYYCATDSFDYWGRGTLVTVSS
VL: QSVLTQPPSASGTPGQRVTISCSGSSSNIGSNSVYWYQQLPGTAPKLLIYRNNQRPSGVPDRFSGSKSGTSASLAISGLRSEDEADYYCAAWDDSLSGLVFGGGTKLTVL
notes: phage scFv
B5: N1wc103 (scFv, V domains shown)
VH: B4 VH with E1Q, V5Q, M81V
VL: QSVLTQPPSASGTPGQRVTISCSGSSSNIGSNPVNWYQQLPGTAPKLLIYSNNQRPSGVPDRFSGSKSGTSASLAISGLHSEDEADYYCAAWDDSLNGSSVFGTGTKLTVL
notes: phage scFv
B6: N1wc110 (scFv, V domains shown)
VH: B4 VH with R106Q, L109M
VL: QSVVTQPPSASGSPGQRVTIACSGSSSNIGSNTVNWYQHVPGTAPKLLIYNNNQRPSGVQDRFSGSKSDTSASLAISGLQAEDEAVYYCATWDDSLIGLAFGGGTKLTVL
notes: phage scFv
B7: hN1S3-126 (scFv, V domains shown)
VH: B4 VH with R106Q
VL: SYVLTQPPSASGAPGQRVTISCSGSISNIGDNTVNWYQHLPRTAPKLVIYSDVQRPSGVPERFSGSKSGTSASLVISGLQAEDEADYYCASWDDSLDGVFFGGGTKLTVL
notes: phage scFv
B8: hN1S3-010 (scFv, V domains shown)
VH: B4 VH with T69I, R87T, L109M
VL: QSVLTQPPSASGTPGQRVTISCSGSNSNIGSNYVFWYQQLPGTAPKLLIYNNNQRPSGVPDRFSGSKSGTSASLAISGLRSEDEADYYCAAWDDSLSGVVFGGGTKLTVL
notes: phage scFv
B9: hN1S3-113 (scFv, V domains shown)
VH: B4 VH
VL: SYVLTQPPSASGTPGQRVTISCSGSSPNIGSNTVNWYQQLPGTAPKLLIYTNNQRPSGVPDRFSGSKSATSASLAISGLQFDDEADYFCAAWDDSLLGVVFGGGTKVTVL
notes: phage scFv
B10: hN1S3-174 (scFv, V domains shown)
VH: B4 VH with R106Q, L109T
VL: QSVLTQPPSVSGAPGQRITISCTGSSSNIGAGYDVHWYQQLPGTAPKLLIYGNSYRPSGVPDRFSGSKSGTSASLAITGLQAEDEADYYCQSYDSSLTGSIFGGGTKLTVL
notes: phage scFv
B11: hN1S3-050 (scFv, V domains shown)
VH: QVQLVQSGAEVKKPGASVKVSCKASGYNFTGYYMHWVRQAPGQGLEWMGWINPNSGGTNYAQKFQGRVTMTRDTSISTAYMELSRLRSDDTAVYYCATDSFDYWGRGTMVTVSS
VL: LPVLTQPPSASGTPGQRVTISCSGRSSNIGSNFVYWYQQLPGTAPKLLIYRNNQRPSGVPDRFSGSKSGTSASLAISGLRSEDEADYYCATWDDNLSGVVFGGGTKLTVL
notes: phage scFv
B12: N1wc137 (scFv, V domains shown)
VH: QVQLVQSGAEVKKPGASVKVSCKASGYTFTNYGLSWVRQAPGQGLEWMGWISGYNDNTSYAQKFQDRITMTTDTSTSTASMELRSLRSDDTAVYYCAFSYYDSSGYFNWGQGTMVTVSS
VL: QAVLTQPSSVSGAPGQRVTVSCTGSSSNIGTGYAVHWYQQLPGTAPRLLIFGNNNRPSGVPDRFSGSKSGTSASLVITGLQAEDEADYYCQSFDTLSGSRVFGGGTKVTVL
notes: phage scFv
B13: N1wc33 (scFv, V domains shown)
VH: EVQLVESGGDLVQPGGSLRLSCAASGFTFSDSWMHWVRQVPGKGLEWVSHIGIDGITTNYADSVKGRFTISRDNAKNTLYLQMNNLRAEDTAVYYCARNVGWESRPWGQGTLVTVSS
VL: SYVLTQPPSASGAPGQRVTISCSGSDSNIGRNTVNWYQQQLPGTAPTLLIYTNNQRPSGVPDRFSGSKSGTSASLAISGLQSGDEADYYCAAWDDSLNAYFFGPGTKLTVL
notes: phage scFv
B14: N1wc106 (scFv, V domains shown)
VH: QVQLVQSGAEVKRPGASVNLSCKASGYSFSRYYIHWVRQAPGQGLELMGRINPGGGTTTYAQKFQGRVTLSRDTSTNTIFMELNGLTSEDTAMYYCARSNYDILAGYGPDAFDFWGRGTLVTVSS
VL: QAVLTQPSSVSGAPGQRVTISCTGSSSNIGADNDVHWYQKFPGTAPKLLIFSNNNRPSGVPDRFSGSKSGTSASLAITGLQADDEADYYCQSYDSGLTRELFGGGTKLTVL
notes: phage scFv
B15: N1wc142 (scFv, V domains shown)
VH: B14 VH with Q1E, R13K, L120M
VL: QSVLTQPPSVSGAPGQRVTISCIGSNSNIGAGHDVHWYQQFPGTAPKLLIYDNTNRPSGVPDRFSGSKSGTSVSLAITGLQAEDEADYYCQSYDSSLGEVFGGGTKLTVL
notes: phage scFv
B16: N1wc140 (scFv, V domains shown)
VH: QVQLQQSGAEVKKPGSSVKVSCRASGGTFSNYAISWVRQAPGQGLEWMGRIIPIFGGAHYAQKLQGRVSITADESTSTAHMELSSLRSEDAAVYYCASGAYYDVMGNYPYSGMDVWGRGTLVTVSS
VL: SYVLTQPPSVSVSPGQTAKITCGGDKIETKSVHWYQQKPGQAPVLVIYEDTKRPSGISERLSGSSAGTVATLTITGAQVDDEADYFCYSTDATGTERVFGGGTKLTVL
notes: phage scFv
B17: N1wc152 (scFv, V domains shown)
VH: QVQLVQSGGGLVQPGGSLRLSCGASGFTFSSHWMSWVRRPPGRGLEWVANINEGGSAEYYADSLKGRFTISRDNAKNSLFLQMDSLRAEDTAVYYCVRDQFHSNYDWGQGTMVTVSS
VL: QAVLTQPSSVSGAPGQRVTISCTGSSSNIGAPFDVHWYQQLPGTAPKLLIYGNSNRPSGVPDRFSGSKFGTSASLAITGLQAADEADYYCQSYDSSLSGWVFGGGTKLTVL
notes: phage scFv
B18: N1wc99 (scFv, V domains shown)
VH: QVQLVQSGAEVKKPGASVKVSCKASGYTFTSYGISWVRQAPGQGLEWMGWISAYNGNTNYAQKLQGRVTMTTDTSTSTAYMELRSLRSDDTAVYYCARLASRAFDIWGRGTLVTVSS
VL: QSVLTQPASVSGSPGQSITISCTGTSSDVGGYNYVSWYQQHPGKAPKLMIYEGSKRPSGVSNRFSGSKSGNTASLTISGLQAEDEADYYCSSYTTRSTRVFGGGTKLTVL
notes: phage scFv
B19: N1wc145 (scFv, V domains shown)
VH: B18 VH with Q1E, Q6E, S31T, A53T, N59K, L99D, S101R, R102K
VL: B18 VL with Q1H, S2V, V3I, A8R
notes: phage scFv
B20: N1wc104 (scFv, V domains shown)
VH: QVQLQESGPGLVKPSGTLSLTCAVSGVSLATNNWWLWVRQSPGKGLEWIGEIYHSGYTNYNPSLKSRVTISVDKSSNQLSLDLRSITAADTAVYYCARRYCDNGVCYPFDHWGQGTMVTVSS
VL: SYVLTQPPSVSEAPRQTVTISCSGNSFNIGRYPVNWYQQLPGKAPKLLIYYNNLRFSGVSDRFSGSKSGTSASLAIRDLLSEDEADYYCSTWDDTLKGWVFGGGTKLTVL
notes: phage scFv
B21: hN1S3-052 (scFv, V domains shown)
VH: QVQLVQSGAEVKKPGASVRISCKTSGFTFTSYFIHWVRQAPGQRPEWMGVINPSRGNADYAPRFRGRVTMTRDKSTHTVYMDLKSLRSDDAAIYYCARDRLGGLLDYYDSSDSSKNFDAFDFWGQGTLVTVSS
VL: QAVLTQPSLASGTPGQRVTISCSGGSSNIGRHTVNWYQQLPGAAPKLLMHSSDQRPSGVPDRFSGSKSGTSASLAISGLQSEDEADYYCAAWDASLKNWVFGGGTKLTVL
notes: phage scFv
B22: hN1S3-067 (scFv, V domains shown)
VH: B21 VH with Q1E
VL: NFMLTQPHSVSESPGKTVIISCTRSSGSIASNYVQWLQQRPGSSPTTVIYDDNRRPSGVPDRFSGSIDGSSNSASLTISGLKTEDEADYYCQSYDRFDHVVFGGGTKLTVL
notes: phage scFv
B23: hN1S3-073 (scFv, V domains shown)
VH: B21 VH
VL: DIQMTQSPSSLSAFVGDRVTITCRASQGINNYLAWFQQKPGKAPKSLIYAASTLRSGVPPRFSGSGSGTDFTLTISSLQPEDFATYYCQQYDSYPHTFGQGTRLEIK
notes: phage scFv

Where a chain is given by its changes, count along the chain named.

The test deals with T1, human full-length Notch1 with C-terminal FLAG tag, stably expressed on 293 FlpIn (TREx) cells (human, UniProt P46531 19-2555).
T1 construct: tetracycline/doxycycline-induced expression from pcDNA5/FRT/TO-HN1+FLAG; also called hN1; 293_N1
Put plainly: FACS, phage scFv.
Take B1: the binding result was “binds”. As for B2, the entry is “binds”; as for B3, “binds”. Next, B4: “binds”. Next, B5: “binds”; B6: “binds”. B7: the binding result was “binds”.

Consider B8, for which the binding result is reported as “binds”. On to B9, for which the binding result is recorded as “binds”. For the molecule B10, the binding result was “binds”. As for B11, the entry is “binds”; as for B12, “binds”.

As to B13, the binding result is “binds”. Next, B14: “binds”; B15: “binds”; B16: “binds”. As for B17, the entry is “binds”; as for B18, “binds”; as for B19, “binds”. As for B20, the entry is “binds”; as for B21, “binds”.

As for B22, the binding result was “binds”. Next, B23: “binds”.
